Experiment [1] concerns the target T1, human CD38 on cells (human, UniProt P28907 1-300).
T1 construct: whole, on cells; The species is stated for the CHO-K1 transfectants; also called CHO-K1 cells recombinantly expressing human CD38; CD38 expressing RPMI8226 cell
The experiment can be described thus: FACS titration on CD38 expressing RPMI8226 cells.

The target in experiment [2] is T2, human CD38-Fc (human, UniProt P28907 43-300, limits assumed).
T2 construct: not shown: Fc part
Kind of experiment: SPR (Biacore 3000), CD38-Fc immobilized, 1:1 fit, apparent. In general terms: SPR reads the build-up and loss of mass on a sensor chip optically.

By EC50 is commonly meant the concentration at which the effect is half-maximal. Higher therefore signals lower potency in that assay.

B1: MOR03080 IgG1 (antibody, V domains shown)
VH: QVQLVESGGGLVQPGGSLRLSCAASGFTFSSYGMHWVRQAPGKGLEWVSNIYSDGSNTFYADSVKGRFTISRDNSKNTLYLQMNSLRAEDTAVYYCARNMYRWPFHYFFDYWGQGTLVTVSS
VL: DIELTQPPSVSVAPGQTARISCSGDNIGNKYVSWYQQKPGQAPVVVIYGDNNRPSGIPERFSGSNSGNTATLTISGTQAEDEADYYCSSYDSSYFVFGGGTKLTVLG
B1 showed an EC50 in experiment [1] of 0.4 nM. In addition, the Kd in experiment [2] stood at 3 nM.

For the origin of these results see patent publication US20100291078A1 (published 2010).
